Measurements taken from US20150184142.

Key:
[1] = tested on: Compound 1
[2] = tested on: Compound 4
[3] = tested on: Compound 5
[4] = tested on: T1, Compound 7
T1 sequence: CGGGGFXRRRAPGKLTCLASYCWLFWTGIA

thrombin
cleavage by 1.4 nM thrombin at 37 C, HPLC [1]: 30% of Compound 1 was quickly cleaved and released | cleavage rate with 14 nM thrombin, HPLC, against Compound 2 [1]: at least 10-fold increase in cleavage rate compared to that of Compound 2 | cleavage by 1.4 nM thrombin at 37 C, HPLC [2]: Compound 1 was a better substrate for thrombin than Compounds 4 and 5 | cleavage by 1.4 nM thrombin at 37 C, HPLC [3]: Compound 1 was a better substrate for thrombin than Compounds 4 and 5 | cleavage by 1.4 nM thrombin in PBS at 37 C, HPLC [4]: Approximately 90% of Compound 7 was cleaved after 30 minutes
